Assay results from article PMC3020944, “Structure-Activity Relationship of Cinnamaldehyde Analogs as Inhibitors of AI-2 Based Quorum Sensing and Their Effect on Virulence of Vibrio spp”.

Molecular target: T1, GST-LuxR (Vibrio harveyi, UniProt P21308 1-205)
T1 sequence: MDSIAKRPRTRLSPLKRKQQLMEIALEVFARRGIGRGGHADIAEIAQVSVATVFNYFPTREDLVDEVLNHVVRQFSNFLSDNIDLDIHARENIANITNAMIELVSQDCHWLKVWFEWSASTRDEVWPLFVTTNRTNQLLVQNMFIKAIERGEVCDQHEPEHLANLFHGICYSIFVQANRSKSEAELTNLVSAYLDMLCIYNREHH
Experiment: fluorescence anisotropy; no inhibitor; Kd value only in Fig. 2B; 30°C; fluorescence polarisation, excitation 480 nm, emission 535 nm; binding buffer, salt and pH not given (as in ref 12); duplex annealed in NaCl-Tris-EDTA
Conditions: protein: recombinant; tags: GST; chain copies: 2; label: 5' fluorescein on strand 1; blunt

B1: V. harveyi consensus LuxR binding sequence (dsDNA)
DNA 1: TATTGATAAATTTATCAATAA
DNA 2: TTATTGATAAATTTATCAATA
Question: Does B1 bind?
Answer: binds
